Assay results as given in US8440629B2, “Cyclic receptor-associated protein (RAP) peptides” (Raptor Pharmaceuticals Inc., priority 2007, dated 2013).

T1: LRP2 CR89 Y1042W R1088D (WVWD) (Homo sapiens, UniProt P98164, R1089D/Y1043W)
T1 construct: two CR pairs from LRP2 (CR89, CR3435); made in house; host or cells: E. coli BL21(DE3) CodonPlus-RIPL, pET30(+)a
T1 sequence (P98164 1025-1102 Y1043W/R1089D): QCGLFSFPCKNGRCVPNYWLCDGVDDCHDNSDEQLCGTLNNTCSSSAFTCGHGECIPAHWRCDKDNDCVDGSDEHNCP

T2: LRP2 CR89 Y1042W V1047D R1088D (WDWD) (Homo sapiens, UniProt P98164, R1089D/V1048D/Y1043W)
T2 construct: two CR pairs from LRP2 (CR89, CR3435); made in house; host or cells: E. coli BL21(DE3) CodonPlus-RIPL, pET30(+)a
T2 sequence (P98164 1022-1105 Y1043W/V1048D/R1089D): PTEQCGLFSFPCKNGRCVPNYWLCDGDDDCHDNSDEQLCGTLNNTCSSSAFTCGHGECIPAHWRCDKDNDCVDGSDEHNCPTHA


Assays:
LRP2 CR89 = target: T3, LRP2 CR89 (Homo sapiens, UniProt P98164); experiment: Solid phase binding assay
T3 construct: two CR pairs from LRP2 (CR89, CR3435); made in house; host or cells: E. coli BL21(DE3) CodonPlus-RIPL, pET30(+)a
Experimental: All expression constructs were sequenced to verify insert sequences and the junctions with the expression vector. Each plasmid was then used to transform BL21(DE3) CodonPlus-RIPL™ cells (Stratagene). Expression of the CR proteins was induced in logarithmic growth-phase cells grown in LB supplemented with 34 μg/mL chloramphenicol, 12.5 μg/mL tetracycline and 15 μg/mL kanamycin by addition of 2 mM IPTG, followed by reduction in incubator temperature to 32° C. and incubation for 4 hours with agitation at […]. Cells were pelleted and resuspended, at 3.5% of the initial culture volume in 10 mM Tris-HCl pH 8, 100 mM NaH2PO4, 8M Urea. Resuspended cells were then frozen in liquid nitrogen, rapidly thawed to 37° C. and sonicated for 10 seconds at an amplitude setting of 60 using a Cole-Parmer CP-130 ultrasonic processor connected to a 3 mm probe. This procedure was repeated three times to effect complete lysis of the cells. Lysates were clarified by spinning twice at 10,000×g in a Sorvall RC-5 centrifuge for 20 minutes at 15° C. Ni-NTA columns (Qiagen Superflow™, 1.5 mL packed bed) were used to purify the CR proteins. Briefly, the resin was equilibrated with two column volumes of lysis buffer. The clarified lysate was then supplemented to 20 mM with imidazole and incubated with the equilibrated Ni-NTA resin overnight at 4° C. The flow-through was discarded. Columns were washed once with one column volume of lysis buffer and then three times with one column volume of TBS pH 8 supplemented with 20 mM imidazole. CR-loaded beads were then removed from the column and CR proteins eluted by incubating at room temperature for 30 minutes with one column volume of the same buffer containing 200 mM imidazole. This step was repeated once and the eluates pooled. Eluted CR protein solutions were then supplemented to 2 M urea, 10 mM CaCl2 and 5 mM DTT. Purified, denatured CR protein solutions were transferred to 3,500 MWCO Slide-A-Lyzer™ (Pierce) cassettes and sequentially dialyzed against a 200-fold excess of 50 mM Tris-HCl pH 8.5, 10 mM CaCl2, 1 mM reduced glutathione, 0.5 mM oxidized glutathione at room temperature overnight and then against TBS supplemented with 5 mM CaCl2 at 4° C. overnight. Protein concentrations were determined by Bradford assay and purity confirmed by SDS-PAGE with Coomassie Brilliant Blue staining.
(§1) Purified, refolded CR protein (1 μg) was bound to Nunc Maxisorp™ 96-well plates in TBS pH 8 supplemented with 5 mM CaCl2 (TBSC) overnight at 4° C. Wells were washed with TBSC and then blocked with TBSC containing 2% bovine serum albumin (BSA). RAP ligands were then incubated with the immobilized receptor at a range of concentrations for 2 hours in the above blocking buffer supplemented with 0.05% Tween-20 at room temperature. Control wells contained no added ligand. As an additional control, to determine whether the absence of calcium affected binding, 10 mM EGTA was included in the incubation medium for some samples. Wells were washed with TBSTC and bound ligands detected with polyclonal anti-RAP (BP41/42, 1:1,000, BioMarin). Excess primary antibody was removed and wells washed before incubation with the secondary antibody, HRP-conjugated goat anti rabbit IgG (Bio-Rad). After washing, TMB substrate solutions (Bio-Rad) were added to detect HRP. Color development was stopped with 1N HCl. Absorption at 450 nm was measured with a microplate spectrophotometer (Molecular Devices). Data were plotted and Kd values derived by non-linear regression with the assumption of single-site binding (GraphPad Prism).

LRP1 CR3-5 = target: T4, LRP1 CR3-5 (Homo sapiens, UniProt Q07954); experiment: Solid phase binding assay
T4 construct: made in house; host or cells: E. coli BL21(DE3) CodonPlus-RIPL, pET30(+)a

[1] = target: T1, LRP2 CR89 Y1042W R1088D (WVWD); experiment: Solid phase binding assay, LRP2 CR89 mutant
From the text: (§2) Each amplified fragment was sequentially digested with BamHI and HindIII and then ligated into similarly digested pET30(+)a. The resulting plasmids encode proteins consisting of N-terminal hexahistidine and S-peptides fused to the CR fragment. Ligation reactions were transformed into XL-Blue MRF′ (Stratagene) by electroporation and plasmids isolated from single colonies. Three mutations, […], V1047D and R1088D, were introduced into the LRP2 CR89 expression plasmid both singly and in combination using Stratagene QuikChange II XL reagents and the primers: […]
as §1
(§3) One premise of this work was that amino acids at A, C, A′ and C′ within the calcium-binding loops of a CR pair were key determinants of binding affinity for RAP and would be similarly important for binding of RAP variants. To test this idea, mutant LRP2 CR89 were prepared in which the native, non-canonical residues at these positions were sequentially substituted with the non-native, canonical residues. As defined above, the A, C, A′, C′ string for LRP2 CR89 is YVWR. Mutants included LRP2 CR89 Y1042W (WVWR), LRP2 CR89 V1047D (YDWR), LRP2 CR89 R1088D (YVWD), LRP2 CR89 V1047D R1088D (YDWD), LRP2 CR89 Y1042W V1047D R1088D (WDWD), LRP2 CR89 Y1042W V1047D (WDWR), LRP2 CR89 Y1042W R1088D (WVWD). Binding to both RAP d3 and MegaRAP1 d3 were measured for each LRP2 CR89 mutant by solid-phase assay. Only the YVWD mutant retained significant binding to MegaRAP1 d3, with an approximate 2-fold loss of affinity relative to LRP2 CR89 (FIG. 6 and Table 3). […] The A′ position in LRP2 CR89 is a tryptophan, the canonical residue for wild-type RAP d3 binding, and was not mutated in our studies.

[2] = target: T2, LRP2 CR89 Y1042W V1047D R1088D (WDWD); experiment: Solid phase binding assay, LRP2 CR89 mutant
From the text: as §2, §1, §3

T3 sequence (P98164 1022-1105 limits assumed): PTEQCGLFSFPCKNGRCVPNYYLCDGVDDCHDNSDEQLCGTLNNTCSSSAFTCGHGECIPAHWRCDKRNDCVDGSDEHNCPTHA
T4 sequence (Q07954 852-973): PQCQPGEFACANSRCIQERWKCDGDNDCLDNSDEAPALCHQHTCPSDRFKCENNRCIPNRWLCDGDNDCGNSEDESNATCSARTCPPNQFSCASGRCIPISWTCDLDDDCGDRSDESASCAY

| Molecule | binding to LRP2 CR89 (in words) (LRP2 CR89; solid-phase assay) | binding at 80 nM (in words) (LRP1 CR3-5; 80 nM ligand, FIG. 7) | binding (in words) [1] | binding (in words) [2] | binding at 80 nM (in words) (LRP2 CR89; 80 nM ligand, FIG. 7) | Kd (LRP2 CR89; solid-phase assay, LRP2 CR89, read-out: apparent dissociation constant (Kd)) [nM] | binding to LRP1 CR3-5 (in words) (LRP1 CR3-5; solid-phase assay) |
| --- | --- | --- | --- | --- | --- | --- | --- |
| RAP d3: third domain of human RAP, amino acids 201-319 of mature RAP, bacterially expressed with hexahistidine and S-peptide tags (SEQ ID NO: 92) (protein, listed as Homo sapiens, hexahistidine and S-peptide tags) LDRLRRVSHQGYSTEAEFEEPRVIDLWDLEQSANLTDKELEAFREELKHFEAKIEKHNHYQKQLEIAHEKLRHAESVGDGERVSRSREKHALLEGRTKELGYTVKKHLQDLSGRISRAR | no significant affinity | only bound to LRP1 CR3-5 | small increase in binding | small increase in binding |  |  |  |
| MegaRAP1 d3: d3 of RAP variant selected on LRP2 CR89: S213T, E217K, H249Y, E251K, K256A, K270E (SEQ ID NO: 93) (protein, listed as Homo sapiens) LDRLRRVSHQGYSTEAEFEEPRVIDLWDLEQSANLTDKELEAFREELKHFKAKIEAHNHYQKQLEIAHEDLRHAESVGDGERVSRSREKHALLEGRTKELGYTVKKHLQDLSGRISRAR |  |  | failed to bind measurably | failed to bind measurably | bound only to LRP2 CR89 | 38 | no significant affinity |
